# Measured values reported in PMC9482650, “Quantitative fragmentomics allow affinity mapping of interactomes” (Nature Communications, 2022).
# Assays:
# Assay in all cases: holdup assay
# Set-up in all cases: key: below the threshold = too weak to quantify, mostly under pKd 3.1 to 4
# [1] = target: FRMPD2_3, Q68DX3
# [2] = target: GRIP2_3, Q9C0E4
# [3] = target: T1, DLG3_3, Q92796
# T1 sequence (Q92796 374-475, limits assumed, looked up): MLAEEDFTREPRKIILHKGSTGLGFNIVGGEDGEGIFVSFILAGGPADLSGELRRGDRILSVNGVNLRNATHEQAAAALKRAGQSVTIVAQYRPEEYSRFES
# [4] = target: GRIP2_6, Q9C0E4
# Sequence of GRIP2_6, Q9C0E4 (Q9C0E4 648-740): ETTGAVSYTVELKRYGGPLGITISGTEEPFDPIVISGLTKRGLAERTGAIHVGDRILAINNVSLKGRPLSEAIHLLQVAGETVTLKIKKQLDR
# [5] = target: T2, SHANK1, Q9Y566
# T2 sequence (Q9Y566 658-767, limits assumed, looked up): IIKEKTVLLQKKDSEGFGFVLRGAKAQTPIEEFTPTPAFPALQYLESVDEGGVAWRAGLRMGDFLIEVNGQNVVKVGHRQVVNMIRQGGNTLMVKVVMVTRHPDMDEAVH
# [6] = target: GOPC, Q9HD26
# [7] = target: T3, APBA3_1, O96018
# T3 sequence (O96018 389-490, limits assumed, looked up): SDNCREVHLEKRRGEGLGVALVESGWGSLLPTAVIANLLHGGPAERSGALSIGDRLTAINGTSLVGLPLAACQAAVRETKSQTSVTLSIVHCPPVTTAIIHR
# [8] = target: T4, NHERF3_1, Q5T2W1
# T4 sequence (Q5T2W1 4-100, limits assumed, looked up): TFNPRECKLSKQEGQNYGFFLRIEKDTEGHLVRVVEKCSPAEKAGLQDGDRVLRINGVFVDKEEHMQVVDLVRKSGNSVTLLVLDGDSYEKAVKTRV
# [9] = target: T5, LRRC7, Q96NW7
# T5 sequence (Q96NW7 1440-1537, limits assumed, looked up): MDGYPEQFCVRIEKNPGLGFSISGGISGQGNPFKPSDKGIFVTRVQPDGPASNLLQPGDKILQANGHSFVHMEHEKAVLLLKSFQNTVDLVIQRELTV
# [10] = target: T6, LNX2_3, Q8N448
# T6 sequence (Q8N448 463-564, limits assumed, looked up): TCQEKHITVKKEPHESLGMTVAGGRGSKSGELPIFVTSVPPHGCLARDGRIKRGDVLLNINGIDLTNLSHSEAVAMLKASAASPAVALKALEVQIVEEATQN
# [11] = target: FRMPD3, Q5JV73
# Sequence of FRMPD3, Q5JV73 (Q5JV73 12-100): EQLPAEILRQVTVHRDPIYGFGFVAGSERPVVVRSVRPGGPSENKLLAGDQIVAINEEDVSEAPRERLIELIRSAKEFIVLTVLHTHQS
# [12] = target: LIMK2, P53671
# Sequence of LIMK2, P53671 (P53671 143-248): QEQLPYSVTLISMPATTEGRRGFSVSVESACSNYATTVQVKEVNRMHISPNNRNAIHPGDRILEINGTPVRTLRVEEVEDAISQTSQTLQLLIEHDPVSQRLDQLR
# [13] = target: Inadl_8, Q8NI35
# Sequence of Inadl_8, Q8NI35 (Q8NI35 1425-1530): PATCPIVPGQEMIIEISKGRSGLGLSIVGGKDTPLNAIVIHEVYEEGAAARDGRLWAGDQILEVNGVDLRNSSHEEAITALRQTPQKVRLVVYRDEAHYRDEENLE
# [14] = target: T7, RHPN1, Q8TCX5
# T7 sequence (Q8TCX5 508-602, limits assumed, looked up): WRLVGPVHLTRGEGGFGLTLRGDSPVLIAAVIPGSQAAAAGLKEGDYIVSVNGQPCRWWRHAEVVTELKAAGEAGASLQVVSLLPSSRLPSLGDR
# [15] = target: NHERF2_2, Q15599
# Sequence of NHERF2_2, Q15599 (Q15599 142-238): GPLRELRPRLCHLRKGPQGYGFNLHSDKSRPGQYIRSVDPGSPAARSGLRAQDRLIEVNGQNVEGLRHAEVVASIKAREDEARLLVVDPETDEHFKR
# [16] = target: TJP2_1, Q9UDY2
# Sequence of TJP2_1, Q9UDY2 (Q9UDY2 24-128): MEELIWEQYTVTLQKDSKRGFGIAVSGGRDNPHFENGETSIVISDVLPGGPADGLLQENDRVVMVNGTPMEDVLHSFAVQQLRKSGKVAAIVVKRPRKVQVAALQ
# [17] = target: Inadl_4, Q8NI35
# Sequence of Inadl_4, Q8NI35 (Q8NI35 547-651): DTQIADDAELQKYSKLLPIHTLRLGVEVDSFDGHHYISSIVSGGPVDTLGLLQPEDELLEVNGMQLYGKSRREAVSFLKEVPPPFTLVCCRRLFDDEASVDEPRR
# [18] = target: T8, PDZD7_3, Q9H5P4
# T8 sequence (Q9H5P4 857-944, limits assumed, looked up): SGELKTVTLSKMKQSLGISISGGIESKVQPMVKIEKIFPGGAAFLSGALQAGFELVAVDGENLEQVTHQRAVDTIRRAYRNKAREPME
# [19] = target: DLG4_1, P78352
# Sequence of DLG4_1, P78352 (P78352 62-152): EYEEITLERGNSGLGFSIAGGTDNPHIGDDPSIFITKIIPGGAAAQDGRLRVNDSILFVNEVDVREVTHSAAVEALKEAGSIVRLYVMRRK
# [20] = target: LAP2, Q96RT1
# Sequence of LAP2, Q96RT1 (Q96RT1 other isoform, or with tags, fused parts or gaps): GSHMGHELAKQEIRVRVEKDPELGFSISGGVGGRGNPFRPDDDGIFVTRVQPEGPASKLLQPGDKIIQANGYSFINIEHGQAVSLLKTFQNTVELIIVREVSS
# [21] = target: T9, NHERF3_3, Q5T2W1
# T9 sequence (Q5T2W1 238-333, limits assumed, looked up): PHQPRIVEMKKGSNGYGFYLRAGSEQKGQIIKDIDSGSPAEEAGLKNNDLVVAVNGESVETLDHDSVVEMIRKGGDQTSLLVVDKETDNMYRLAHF
# [22] = target: T10, APBA1_2, Q02410
# T10 sequence (Q02410 742-832, limits assumed, looked up): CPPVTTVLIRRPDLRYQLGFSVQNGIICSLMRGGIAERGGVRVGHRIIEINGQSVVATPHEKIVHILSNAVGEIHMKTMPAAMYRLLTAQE
# [23] = target: LNX1_1, Q8TBB1
# Sequence of LNX1_1, Q8TBB1 (Q8TBB1 261-371): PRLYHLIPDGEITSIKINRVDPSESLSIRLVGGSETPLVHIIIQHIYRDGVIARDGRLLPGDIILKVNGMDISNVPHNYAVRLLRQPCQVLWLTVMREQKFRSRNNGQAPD
# [24] = target: CASK, O14936
# Sequence of CASK, O14936 (O14936 487-570): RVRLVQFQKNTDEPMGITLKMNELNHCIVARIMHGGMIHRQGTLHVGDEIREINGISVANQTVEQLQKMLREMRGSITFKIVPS
# [25] = target: T11, TJP3_3, O95049
# T11 sequence (O95049 375-456, limits assumed, looked up): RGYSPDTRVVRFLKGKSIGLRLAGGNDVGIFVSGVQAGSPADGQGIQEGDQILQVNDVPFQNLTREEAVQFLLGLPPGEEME
# [26] = target: DLG1_3, Q12959
# Sequence of DLG1_3, Q12959 (Q12959 457-571): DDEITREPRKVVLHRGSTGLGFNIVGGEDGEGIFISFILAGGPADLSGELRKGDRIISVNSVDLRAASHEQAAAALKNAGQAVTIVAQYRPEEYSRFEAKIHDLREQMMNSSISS
# [27] = target: NHERF4_2, Q86UT5
# Sequence of NHERF4_2, Q86UT5 (Q86UT5 220-308): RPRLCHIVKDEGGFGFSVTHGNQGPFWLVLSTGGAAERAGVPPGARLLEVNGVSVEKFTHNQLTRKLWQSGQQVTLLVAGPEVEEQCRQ
# [28] = plain residues with an end cap or a label only (N-terminal biotin on a linker: ttds)
# [29] = plain residues with an end cap or a label only (N-terminal biotin on a linker: none)
# Sequence of FRMPD2_3, Q68DX3 (Q68DX3 1073-1166): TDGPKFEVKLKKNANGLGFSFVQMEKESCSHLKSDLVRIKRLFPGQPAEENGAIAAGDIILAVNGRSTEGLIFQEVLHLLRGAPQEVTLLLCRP
# Sequence of GRIP2_3, Q9C0E4 (Q9C0E4 238-339): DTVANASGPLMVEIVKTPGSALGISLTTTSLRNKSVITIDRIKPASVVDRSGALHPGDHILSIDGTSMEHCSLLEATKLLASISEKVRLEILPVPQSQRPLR
binder,measurement,setting,value
"TGDTLEKFVEGL [CBP, Q92793]",pKd,[1]; [28],below the threshold
same,pKd,[2]; [28],below the threshold
same,pKd,[3]; [28],below the threshold
same,pKd,[4]; [28],below the threshold
same,pKd,[5]; [28],below the threshold
same,pKd,[6]; [28],below the threshold
same,pKd,[7]; [28],below the threshold
same,pKd,[8]; [28],below the threshold
same,pKd,[9]; [28],below the threshold
same,pKd,[10]; [28],below the threshold
same,pKd,[11]; [28],below the threshold
same,pKd,[12]; [28],below the threshold
same,pKd,[13]; [28],below the threshold
same,pKd,[14]; [28],below the threshold
same,pKd,[15]; [28],below the threshold
same,pKd,[16]; [28],below the threshold
same,pKd,[17]; [28],below the threshold
same,pKd,[18]; [28],below the threshold
same,pKd,[19]; [28],3.54
same,pKd,[20]; [28],below the threshold
same,pKd,[21]; [28],below the threshold
same,pKd,[22]; [28],below the threshold
same,pKd,[23]; [28],below the threshold
same,pKd,[24]; [28],below the threshold
same,pKd,[25]; [28],below the threshold
same,pKd,[26]; [28],below the threshold
same,pKd,[27]; [28],below the threshold
"DSKPPLPPDEWV [MERS-E, K9N5R3]",pKd,[1]; [29],3.53
same,pKd,[2]; [29],3.52
same,pKd,[3]; [29],3.58
same,pKd,[4]; [29],below the threshold
same,pKd,[5]; [29],below the threshold
same,pKd,[6]; [29],3.92
same,pKd,[7]; [29],3.65
same,pKd,[8]; [29],below the threshold
same,pKd,[9]; [29],4.4
same,pKd,[10]; [29],below the threshold
same,pKd,[11]; [29],4.17
same,pKd,[12]; [29],below the threshold
same,pKd,[13]; [29],3.55
same,pKd,[14]; [29],below the threshold
same,pKd,[15]; [29],below the threshold
same,pKd,[16]; [29],3.84
same,pKd,[17]; [29],below the threshold
same,pKd,[18]; [29],below the threshold
same,pKd,[19]; [29],3.62
same,pKd,[20]; [29],5.24
same,pKd,[21]; [29],below the threshold
same,pKd,[22]; [29],4.59
same,pKd,[23]; [29],below the threshold
same,pKd,[24]; [29],3.48
same,pKd,[25]; [29],4.83
same,pKd,[26]; [29],3.5
same,pKd,[27]; [29],below the threshold
"HRTCYLVTQL [ASIC3, Q9UHC3]",pKd,[1]; [28],below the threshold
same,pKd,[2]; [28],below the threshold
same,pKd,[3]; [28],3.49
same,pKd,[4]; [28],3.22
same,pKd,[5]; [28],4.91
same,pKd,[6]; [28],4.79
same,pKd,[7]; [28],below the threshold
same,pKd,[8]; [28],4.8
same,pKd,[9]; [28],4.04
same,pKd,[10]; [28],below the threshold
same,pKd,[11]; [28],3.53
same,pKd,[12]; [28],below the threshold
same,pKd,[13]; [28],3.8
same,pKd,[14]; [28],4.46
same,pKd,[15]; [28],4.5
same,pKd,[16]; [28],3.89
same,pKd,[17]; [28],below the threshold
same,pKd,[18]; [28],5.47
same,pKd,[19]; [28],3.78
same,pKd,[20]; [28],4.02
same,pKd,[21]; [28],3.52
same,pKd,[22]; [28],3.78
same,pKd,[23]; [28],4.03
same,pKd,[24]; [28],below the threshold
same,pKd,[25]; [28],3.43
same,pKd,[26]; [28],4.56
same,pKd,[27]; [28],3.21
